From article PMC7334588

Target: RSC chromatin remodeling complex (S. cerevisiae) (UniProt P32597)
Assay: BLI

UniProt P32597, sequence (P32597 whole entry, looked up, one chain of several): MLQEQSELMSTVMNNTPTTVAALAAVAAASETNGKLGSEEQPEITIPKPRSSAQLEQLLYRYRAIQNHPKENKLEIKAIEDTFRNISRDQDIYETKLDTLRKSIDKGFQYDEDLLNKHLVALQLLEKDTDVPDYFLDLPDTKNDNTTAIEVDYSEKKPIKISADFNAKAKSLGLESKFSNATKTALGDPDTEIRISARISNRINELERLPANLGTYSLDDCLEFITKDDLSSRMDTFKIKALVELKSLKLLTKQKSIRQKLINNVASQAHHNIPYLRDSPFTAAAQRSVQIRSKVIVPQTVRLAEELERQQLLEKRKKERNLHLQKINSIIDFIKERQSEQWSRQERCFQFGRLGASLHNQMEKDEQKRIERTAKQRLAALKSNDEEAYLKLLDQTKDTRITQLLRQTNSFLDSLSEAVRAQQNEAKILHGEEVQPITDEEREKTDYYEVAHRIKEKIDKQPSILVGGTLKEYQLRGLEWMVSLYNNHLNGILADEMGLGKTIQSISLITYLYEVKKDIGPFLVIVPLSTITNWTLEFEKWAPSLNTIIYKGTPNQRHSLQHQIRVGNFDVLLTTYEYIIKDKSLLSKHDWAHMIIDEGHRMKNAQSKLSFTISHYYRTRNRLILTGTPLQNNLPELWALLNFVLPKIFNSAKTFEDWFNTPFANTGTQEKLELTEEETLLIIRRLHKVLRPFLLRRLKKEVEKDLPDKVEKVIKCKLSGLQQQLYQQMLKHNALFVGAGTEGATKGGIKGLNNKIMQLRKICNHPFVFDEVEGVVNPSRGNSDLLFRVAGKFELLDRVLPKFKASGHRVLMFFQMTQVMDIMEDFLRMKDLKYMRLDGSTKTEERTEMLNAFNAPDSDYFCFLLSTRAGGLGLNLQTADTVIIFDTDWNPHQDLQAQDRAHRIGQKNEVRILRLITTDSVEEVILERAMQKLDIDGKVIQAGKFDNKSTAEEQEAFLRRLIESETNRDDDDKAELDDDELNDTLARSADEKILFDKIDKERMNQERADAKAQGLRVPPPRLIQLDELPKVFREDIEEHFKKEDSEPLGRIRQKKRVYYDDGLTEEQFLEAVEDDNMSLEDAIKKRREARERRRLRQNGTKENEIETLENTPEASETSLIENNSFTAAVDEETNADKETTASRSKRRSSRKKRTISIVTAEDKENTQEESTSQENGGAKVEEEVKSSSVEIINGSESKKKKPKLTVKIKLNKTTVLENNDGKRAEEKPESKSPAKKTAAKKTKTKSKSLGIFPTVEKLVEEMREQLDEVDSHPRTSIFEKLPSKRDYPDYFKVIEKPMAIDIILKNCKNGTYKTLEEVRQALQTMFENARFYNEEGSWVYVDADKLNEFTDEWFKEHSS

SUMOylated nucleosome with an in-frame fusion of SUMO to H2B (from UniProt P02281 6-126) (complex)
fold higher affinity than for unmodified nucleosomes: 2 fold
